Substrate in series [1]: NC(=O)c1ccc[n+]([C@@H]2O[C@H](COP(=O)([O-])OP(=O)(O)OC[C@H]3O[C@@H](n4cnc5c(N)ncnc54)[C@H](O)[C@@H]3O)[C@@H](O)[C@H]2O)c1
As to the kind of experiment: Michaelis constants of leucine dehydrogenase. As to conditions: other: purified leucine dehydrogenase from Bacillus stearothermophilus; pH 11.0; 55.0 °C. It is filed as biochemical. Here is the method:
(§1) Next, physico-chemical properties of the thus obtained leucine dehydrogenase of the present invention are shown below, wherein the leucine dehydrogenase was obtained from Bacillus stearothermophilus.
(§2) A solution mixture containing 1.25 mM NAD and 10 mM L-leucine in a […] glycine-KCl-KOH buffer solution having pH 11 was prepared. A suitable amount of a leucine dehydrogenase was added to the solution mixture and the increment of a reduced type NAD per unit time at 55° C. was measured as an increment of the absorbancy at 340 nm. The amount of the enzyme which made it possible to increase the absorbancy of 1μ mole of NADH at 340 nm per minute was set at 1 unit.

Substrate in series [2]: CC(C)C[C@H](N)C(=O)O
As to the kind of experiment: Michaelis constants of leucine dehydrogenase. Type of series: biochemical. The following applies: other: purified leucine dehydrogenase from Bacillus stearothermophilus; pH 11.0; 55.0 °C. Here is the method:
as §1, §2

What is called Km is the concentration of substrate that gives half-maximal velocity.

B1: leucine dehydrogenase obtained from Bacillus stearothermophilus (Geobacillus stearothermophilus) (protein)
chain: MELFKYMETYDYEQVLFCQDKESGLKAIIAIHDTTLGPALGGTRMWMYNSEEEALEDALRLARGMTYKNAAAGLNLGGGKTVIIGDPRKDKNEAMFRAFGRFIQGLNGRYITAEDVGTTVADMDIIYQETDYVTGISPEFGSSGNPSPATAYGVYRGMKAAAKEAFGSDSLEGKVVAVQGVGNVAYHLCRHLHEEGAKLIVTDINKEVVARAVEEFGAKAVDPNDIYGVECDIFAPCALGGIINDQTIPQLKAKVIAGSADNQLKEPRHGDIIHEMGIVYAPDYVINAGGVINVADELYGYNRERAMKKIEQIYDNIEKVFAIAKRDNIPTYVAADRMAEERIETMRKARSPFLQNGHHILSRRRAR
notes: the leucine dehydrogenase was obtained from Bacillus stearothermophilus; endogenous in cells; host or cells: Bacillus stearothermophilus (enzyme isolated and purified from the cultured bacteria)
With B1, the Km in series [1] turned out to be 400 µM; in series [2], 1500 µM.

(Values after US4546077A, “Leucine dehydrogenase and a process for production thereof” (Unitika Ltd., priority 1982, dated 1985).)
